Laboratory results reported in the supplement of paper PMC9112550, “Optimization of the antimicrobial peptide Bac7 by deep mutational scanning” (BMC Biology, 2022).

Tested on: Escherichia coli TOP10
Experiment: shrunken log2 fold change of peptide-encoding DNA abundance (4.5 h post-induction vs induction); higher = less antimicrobial activity (less host growth inhibition)
Conditions: time post-induction: 4.5 h; library: site-saturation at positions 5, 18, 19, 20
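Further: peptides expressed intracellularly from a pBAD plasmid library in pooled LB shake-flask culture, induced with 0.3% L-arabinose, DNA abundance read by NGS, three biological replicates, DESeq2 with apeglm shrinkage.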

| Sequence | shrunken log2 fold change |
| --- | --- |
| RRIRKRPPRLPRPRPRPDDYPRP | 0.276 |
| RRIRNRPPRLPRPRPRPRTWPRP | 0.415 |
| RRIRLRPPRLPRPRPRPHGKPRP | -0.191 |
| RRIRARPPRLPRPRPRPYRVPRP | -0.211 |
| RRIRPRPPRLPRPRPRPCIWPRP | -0.109 |
| RRIRPRPPRLPRPRPRPDQQPRP | -0.0644 |
| RRIRCRPPRLPRPRPRPYQNPRP | -1.1 |
| RRIRARPPRLPRPRPRPICKPRP | -0.159 |
| RRIRKRPPRLPRPRPRPINMPRP | -0.196 |
| RRIRSRPPRLPRPRPRPTIAPRP | 0.105 |
| RRIRFRPPRLPRPRPRPDMYPRP | -0.00804 |
| RRIRMRPPRLPRPRPRPQEEPRP | -0.0207 |
| RRIRERPPRLPRPRPRPEYKPRP | -0.471 |
| RRIRNRPPRLPRPRPRPMFDPRP | -0.253 |
| RRIRSRPPRLPRPRPRPCFKPRP | -0.173 |
| RRIRSRPPRLPRPRPRPQPCPRP | 2.29 |
| RRIRNRPPRLPRPRPRPSFPPRP | -0.19 |
| RRIRQRPPRLPRPRPRPCYIPRP | -0.191 |
| RRIRWRPPRLPRPRPRPLSAPRP | 0.553 |
| RRIRARPPRLPRPRPRPFGGPRP | 0.0726 |
| RRIRFRPPRLPRPRPRPHMQPRP | -0.725 |
| RRIRARPPRLPRPRPRPTSDPRP | 0.954 |
| RRIRMRPPRLPRPRPRPSMLPRP | 0.0158 |
| RRIRQRPPRLPRPRPRPHASPRP | -0.00783 |
| RRIRPRPPRLPRPRPRPSFLPRP | -0.271 |

| Sequence | shrunken log2 fold change |
| --- | --- |
| RRIRFRPPRLPRPRPRPPCHPRP | -0.0556 |
| RRIRFRPPRLPRPRPRPNKAPRP | -0.268 |
| RRIRWRPPRLPRPRPRPHIKPRP | -0.243 |
| RRIRWRPPRLPRPRPRPIHTPRP | -0.275 |
| RRIRVRPPRLPRPRPRPGEPPRP | 0.043 |
| RRIRNRPPRLPRPRPRPHIMPRP | -0.122 |
| RRIRFRPPRLPRPRPRPEGAPRP | 1.05 |
| RRIRTRPPRLPRPRPRPVFAPRP | 0.214 |
| RRIRWRPPRLPRPRPRPRNVPRP | -0.0411 |
| RRIRYRPPRLPRPRPRPEHHPRP | -0.646 |
| RRIRWRPPRLPRPRPRPIEPPRP | 0.0341 |
| RRIRIRPPRLPRPRPRPECKPRP | -0.259 |
| RRIRPRPPRLPRPRPRPIGIPRP | 0.208 |
| RRIRSRPPRLPRPRPRPWAVPRP | -0.0517 |
| RRIRSRPPRLPRPRPRPGGPPRP | 0.415 |
| RRIRCRPPRLPRPRPRPCVPPRP | -0.49 |
| RRIRNRPPRLPRPRPRPKSVPRP | 0.0186 |
| RRIRWRPPRLPRPRPRPGCIPRP | 0.293 |
| RRIRNRPPRLPRPRPRPHKAPRP | 0.00883 |
| RRIRDRPPRLPRPRPRPDHNPRP | 0.0311 |
| RRIRKRPPRLPRPRPRPITYPRP | -0.193 |
| RRIRMRPPRLPRPRPRPCFLPRP | -0.117 |
| RRIRQRPPRLPRPRPRPVEFPRP | 0.0188 |
| RRIRHRPPRLPRPRPRPIGWPRP | 0.0927 |
| RRIRARPPRLPRPRPRPENQPRP | 0.153 |

| Sequence | shrunken log2 fold change |
| --- | --- |
| RRIRYRPPRLPRPRPRPRSSPRP | 0.069 |
| RRIRYRPPRLPRPRPRPNCGPRP | -0.00237 |
| RRIRHRPPRLPRPRPRPRIPPRP | -0.32 |
| RRIRKRPPRLPRPRPRPNAMPRP | -0.0822 |
| RRIRYRPPRLPRPRPRPINMPRP | -0.281 |
| RRIRTRPPRLPRPRPRPSCSPRP | -0.16 |
| RRIRVRPPRLPRPRPRPPMHPRP | 0.245 |
| RRIRDRPPRLPRPRPRPQKNPRP | -0.431 |
| RRIRRRPPRLPRPRPRPGQYPRP | -0.16 |
| RRIRNRPPRLPRPRPRPMYEPRP | 0.0112 |
| RRIRYRPPRLPRPRPRPGLKPRP | -0.0239 |
| RRIRYRPPRLPRPRPRPVCTPRP | -0.569 |
| RRIRNRPPRLPRPRPRPLIYPRP | -0.114 |
| RRIRQRPPRLPRPRPRPALSPRP | 0.217 |
| RRIRYRPPRLPRPRPRPFDKPRP | -0.0924 |
| RRIRIRPPRLPRPRPRPLNAPRP | -0.107 |
| RRIRCRPPRLPRPRPRPCAWPRP | 0.0576 |
| RRIRTRPPRLPRPRPRPFLNPRP | -0.183 |
| RRIRQRPPRLPRPRPRPPSHPRP | 0.0871 |
| RRIRPRPPRLPRPRPRPWCPPRP | 2.07 |
| RRIRLRPPRLPRPRPRPFLVPRP | -0.338 |
| RRIRKRPPRLPRPRPRPLSFPRP | -0.191 |
| RRIRERPPRLPRPRPRPVAQPRP | -0.201 |
| RRIRYRPPRLPRPRPRPPFHPRP | -0.589 |
| RRIRGRPPRLPRPRPRPVHIPRP | -0.165 |

| Sequence | shrunken log2 fold change |
| --- | --- |
| RRIRQRPPRLPRPRPRPWMLPRP | -0.267 |
| RRIRPRPPRLPRPRPRPGVIPRP | -0.321 |
| RRIRFRPPRLPRPRPRPKVEPRP | 0.114 |
| RRIRPRPPRLPRPRPRPCHHPRP | -0.536 |
| RRIRVRPPRLPRPRPRPHQTPRP | -0.443 |
| RRIRYRPPRLPRPRPRPRNNPRP | -0.738 |
| RRIRPRPPRLPRPRPRPTKLPRP | -0.0235 |
| RRIRYRPPRLPRPRPRPKSGPRP | 0.0623 |
| RRIRDRPPRLPRPRPRPSRQPRP | -0.12 |
| RRIRMRPPRLPRPRPRPGIFPRP | 0.00597 |
| RRIRFRPPRLPRPRPRPETFPRP | -0.0396 |
| RRIRHRPPRLPRPRPRPKLPPRP | 0.0191 |
| RRIRCRPPRLPRPRPRPPVGPRP | 0.414 |
| RRIRVRPPRLPRPRPRPGKSPRP | -0.0236 |
| RRIRARPPRLPRPRPRPMHNPRP | -0.00444 |
| RRIRGRPPRLPRPRPRPCIFPRP | 0.426 |
| RRIRCRPPRLPRPRPRPTDMPRP | -0.16 |
| RRIRWRPPRLPRPRPRPIVPPRP | 0.138 |
| RRIRVRPPRLPRPRPRPHHYPRP | 0.13 |
| RRIRNRPPRLPRPRPRPPYLPRP | -0.269 |
| RRIRIRPPRLPRPRPRPWQWPRP | -0.108 |
| RRIRPRPPRLPRPRPRPRWWPRP | 0.0553 |
| RRIRTRPPRLPRPRPRPWYHPRP | -0.464 |
| RRIRRRPPRLPRPRPRPSMEPRP | 0.0198 |
| RRIRERPPRLPRPRPRPDFPPRP | 0.00147 |

| Sequence | shrunken log2 fold change |
| --- | --- |
| RRIRPRPPRLPRPRPRPAGCPRP | 0.386 |
| RRIRERPPRLPRPRPRPVGHPRP | -0.000999 |
| RRIRTRPPRLPRPRPRPLFRPRP | -0.353 |
| RRIRQRPPRLPRPRPRPLKLPRP | -0.017 |
| RRIRRRPPRLPRPRPRPGPYPRP | 0.18 |
| RRIRLRPPRLPRPRPRPYSRPRP | 0.0264 |
| RRIRNRPPRLPRPRPRPVPNPRP | -0.0122 |
| RRIRERPPRLPRPRPRPPCIPRP | -0.163 |
| RRIRRRPPRLPRPRPRPLTPPRP | 0.489 |
| RRIRVRPPRLPRPRPRPADAPRP | -0.183 |
| RRIRLRPPRLPRPRPRPSCPPRP | -0.169 |
| RRIRTRPPRLPRPRPRPQFRPRP | -0.132 |
| RRIRTRPPRLPRPRPRPGMLPRP | -0.141 |
| RRIRCRPPRLPRPRPRPGSGPRP | 0.496 |
| RRIRVRPPRLPRPRPRPNDVPRP | -0.116 |
| RRIRNRPPRLPRPRPRPGESPRP | -0.111 |
| RRIRARPPRLPRPRPRPYLCPRP | -0.291 |
| RRIRGRPPRLPRPRPRPMELPRP | 0.271 |
| RRIRNRPPRLPRPRPRPVYDPRP | -0.386 |
| RRIRKRPPRLPRPRPRPKHLPRP | -0.334 |
| RRIRQRPPRLPRPRPRPFYVPRP | -0.484 |
| RRIRERPPRLPRPRPRPLHTPRP | -0.674 |
| RRIRLRPPRLPRPRPRPSGHPRP | -0.208 |
| RRIRFRPPRLPRPRPRPSEDPRP | 0.00214 |
| RRIRNRPPRLPRPRPRPDKCPRP | -0.116 |

| Sequence | shrunken log2 fold change |
| --- | --- |
| RRIRHRPPRLPRPRPRPVNYPRP | -0.881 |
| RRIRERPPRLPRPRPRPHNEPRP | -0.438 |
| RRIRVRPPRLPRPRPRPGHLPRP | -0.185 |
| RRIRYRPPRLPRPRPRPWSKPRP | -0.0945 |
| RRIRYRPPRLPRPRPRPSRGPRP | -0.0776 |
| RRIRSRPPRLPRPRPRPFMKPRP | -0.205 |
| RRIRQRPPRLPRPRPRPEKIPRP | 2.55 |
| RRIRNRPPRLPRPRPRPALAPRP | 0.1 |
| RRIRYRPPRLPRPRPRPSHYPRP | -0.966 |
| RRIRFRPPRLPRPRPRPPRQPRP | 0.828 |
| RRIRQRPPRLPRPRPRPVLPPRP | 0.0127 |
| RRIRTRPPRLPRPRPRPHCFPRP | -0.102 |
| RRIRFRPPRLPRPRPRPFQLPRP | -0.0751 |
| RRIRFRPPRLPRPRPRPFYAPRP | -0.542 |
| RRIRARPPRLPRPRPRPARMPRP | 0.724 |
| RRIRRRPPRLPRPRPRPETTPRP | 1.09 |
| RRIRCRPPRLPRPRPRPWHNPRP | -0.244 |
| RRIRMRPPRLPRPRPRPMIYPRP | -0.178 |
| RRIRVRPPRLPRPRPRPHHMPRP | -0.26 |
| RRIRSRPPRLPRPRPRPHVHPRP | -0.412 |
| RRIRIRPPRLPRPRPRPWRCPRP | -0.107 |
| RRIRARPPRLPRPRPRPRFDPRP | 0.236 |
| RRIRSRPPRLPRPRPRPHVCPRP | 0.0517 |
| RRIRNRPPRLPRPRPRPWGVPRP | 0.112 |
| RRIRIRPPRLPRPRPRPTCPPRP | 0.00857 |
